Measured values reported in publication PMC9270245, “A metal ion–dependent conformational switch modulates activity of the Plasmodium M17 aminopeptidase” (The Journal of Biological Chemistry, 2022).

Molecular target: the molecule itself
Experiment: SEC; analytical gel filtration, 100 ug purified protein, Superdex S200 Increase 10/300, 50 mM Hepes (pH 8.0), 300 mM NaCl, 1 mM MnCl2; approximate molecular weight by interpolation of a standard curve

B1: M17 aminopeptidase from Plasmodium falciparum, wildtype (truncated, amino acids 85-605) (enzyme, UniProt Q8IL11 85-605, looked up)
chain: ASEVPQVVSLDPTSIPIEYNTPIHDIKVQVYDIKGGCNVEEGLTIFLVNNPGKENGPVKISSKVNDKNVSEFLKDENMEKFNVKLGTSKHFYMFNDNKNSVAVGYVGCGSVADLSEADMKRVVLSLVTMLHDNKLSKLTVVFEINVDKNLFRFFLETLFYEYMTDERFKSTDKNVNMEYIKHLGVYINNADTYKEEVEKARVYYFGTYYASQLIAAPSNYCNPVSLSNAAVELAQKLNLEYKILGVKELEELKMGAYLSVGKGSMYPNKFIHLTYKSKGDVKKKIALVGKGITFDSGGYNLKAAPGSMIDLMKFDMSGCAAVLGCAYCVGTLKPENVEIHFLSAVCENMVSKNSYRPGDIITASNGKTIEVGNTDAEGRLTLADALVYAEKLGVDYIVDIATLTGAMLYSLGTSYAGVFGNNEELINKILNSSKTSNEPVWWLPIINEYRATLNSKYADINNISSSVKASSIVASLFLKEFVQNTAWAHIDIAGVSWNFKARKPKGFGVRLLTEFVLNDAL
notes: Homohexamer, a dimer of trimers; also called PfA-M17; wildtype PfA-M17; source: E. coli BL21(DE3), autoinduction, purified (nickel-nitrilotriacetic acid agarose, gel filtration on Superdex S200)
- stoichiometry N: 6

B2: PfA-M17 (A387P) (enzyme)
chain: ASEVPQVVSLDPTSIPIEYNTPIHDIKVQVYDIKGGCNVEEGLTIFLVNNPGKENGPVKISSKVNDKNVSEFLKDENMEKFNVKLGTSKHFYMFNDNKNSVAVGYVGCGSVADLSEADMKRVVLSLVTMLHDNKLSKLTVVFEINVDKNLFRFFLETLFYEYMTDERFKSTDKNVNMEYIKHLGVYINNADTYKEEVEKARVYYFGTYYASQLIAAPSNYCNPVSLSNAAVELAQKLNLEYKILGVKELEELKMGAYLSVGKGSMYPNKFIHLTYKSKGDVKKKIALVGKGITFDSGGYNLKPAPGSMIDLMKFDMSGCAAVLGCAYCVGTLKPENVEIHFLSAVCENMVSKNSYRPGDIITASNGKTIEVGNTDAEGRLTLADALVYAEKLGVDYIVDIATLTGAMLYSLGTSYAGVFGNNEELINKILNSSKTSNEPVWWLPIINEYRATLNSKYADINNISSSVKASSIVASLFLKEFVQNTAWAHIDIAGVSWNFKARKPKGFGVRLLTEFVLNDAL
notes: M17 aminopeptidase of Plasmodium falciparum, amino acids 85-605, with a proline in place of Ala387 by site-directed mutagenesis (PCR); the PDB entries hold the wildtype parent; source: E. coli BL21(DE3), autoinduction, purified (nickel-nitrilotriacetic acid agarose, gel filtration on Superdex S200)
- stoichiometry N: 6
